Experimental data taken from US8734803 (IBIO, dated 2014).

Tests used:
Experiment in all cases: cell-based or functional assay
[1] = target: T1, neuraminidase of influenza A/Vietnam/1203/04 (H5N1, clade 1) on live virus (influenza A/Vietnam/1203/04 (H5N1), UniProt Q6DPL2 1-449)
[2] = target: NA (neuraminidase) used in the NA activity inhibition experiments of Example 9
[3] = target: T1, neuraminidase of influenza …; remark: listed apart in the source

T1 sequence (Q6DPL2 whole entry): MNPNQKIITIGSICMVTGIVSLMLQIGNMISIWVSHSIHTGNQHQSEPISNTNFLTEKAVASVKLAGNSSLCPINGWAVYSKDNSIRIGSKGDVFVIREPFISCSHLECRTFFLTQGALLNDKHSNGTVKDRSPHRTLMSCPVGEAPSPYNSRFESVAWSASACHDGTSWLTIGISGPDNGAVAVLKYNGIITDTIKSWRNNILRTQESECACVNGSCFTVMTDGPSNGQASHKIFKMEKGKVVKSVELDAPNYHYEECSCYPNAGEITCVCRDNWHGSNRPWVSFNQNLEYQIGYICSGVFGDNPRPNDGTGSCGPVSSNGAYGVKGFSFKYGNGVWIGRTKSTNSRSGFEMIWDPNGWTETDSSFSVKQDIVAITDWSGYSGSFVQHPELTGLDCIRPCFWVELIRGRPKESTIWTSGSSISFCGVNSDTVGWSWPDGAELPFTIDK

B1: 2B9 anti-N1 neuraminidase monoclonal antibody (antibody, V domains shown)
VH: QVQLQQSGAELVRPGTSVKMSCKAAGYTFTNYWIGWVKQRPGHGLEWIGDIYPENDFSNYNEKFKDKATLTADTSSRTAYMQLSSLTSEDSAIYYCVRANEGWYLDVWGTGTTVSVSS
VL: DIQMTQSPASLSESVGETVTITCRASENIYSYLAWYQQKQGKSPQLLVYFAKTLAEGVPSTFSGSGSGTLFSLKINSLQPEDFGNYYCQHHYGTPYTFGGGTKLEIKR
- NA assay IC50 (Antibody IC50) [1]: < 1 µg/mL
- IC50, inhibition of NA activity [2]: 0.82 µg/mL
- IC50 of 2B9 against various influenza strains (NA inhibition) [3]: ≤ 1 µg/mL
